Measured values as given in paper PMC12784932, “Keratin 15 promotes a progenitor cell state in basal keratinocytes of skin epidermis” (The Journal of Cell Biology, 2026).

Target: T1, EGFP-K14 WT (human keratin 14) (human, UniProt P02533 1-472)
T1 construct: keratin 14 (K14), human; codon-optimized KRT14 cDNA synthesized by Twist Biosciences; Co-expressed with untagged human K5, its type II copolymerization partner; also called WT K14; source: HeLa, transfected (nucleofection) together with untagged K5, in lysate (detergent-soluble pool)
T1 sequence (looked up): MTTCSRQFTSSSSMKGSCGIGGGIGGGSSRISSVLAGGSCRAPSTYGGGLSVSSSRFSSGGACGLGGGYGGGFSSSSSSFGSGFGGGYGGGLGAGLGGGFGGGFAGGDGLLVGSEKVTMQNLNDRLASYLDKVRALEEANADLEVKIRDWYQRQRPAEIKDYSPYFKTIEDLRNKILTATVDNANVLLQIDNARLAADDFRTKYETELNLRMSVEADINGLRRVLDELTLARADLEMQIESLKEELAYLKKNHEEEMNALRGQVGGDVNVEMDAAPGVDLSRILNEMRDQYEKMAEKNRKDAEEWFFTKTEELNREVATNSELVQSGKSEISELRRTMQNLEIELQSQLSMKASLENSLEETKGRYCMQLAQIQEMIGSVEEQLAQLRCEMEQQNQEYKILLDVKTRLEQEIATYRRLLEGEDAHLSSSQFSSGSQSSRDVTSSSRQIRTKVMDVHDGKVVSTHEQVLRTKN
Assay: co-IP; GFP-Trap Magnetic Agarose (25 μl beads) on 600 μg lysate of HeLa cells cotransfected with untagged K5 and the EGFP-tagged keratin; lysis in 10 mM Tris/Cl pH 7.5, 150 mM NaCl, 0.5 mM EDTA, 0.5% Nonidet P-40 Substitute (detergent-soluble pool); 4°C, 1 h; western blot for endogenous 14-3-3σ; 14-3-3σ signal normalized to GFP
Settings: partners not purified

fold 14-3-3σ in the immunoprecipitate (normalized to GFP) against the EGFP-K15 WT immunoprecipitate: > 2 fold
B1: 14-3-3σ (stratifin) (natural protein, human (endogenous in HeLa), UniProt P31947 1-248, looked up)
chain: MERASLIQKAKLAEQAERYEDMAAFMKGAVEKGEELSCEERNLLSVAYKNVVGGQRAAWRVLSSIEQKSNEEGSEEKGPEVREYREKVETELQGVCDTVLGLLDSHLIKEAGDAESRVFYLKMKGDYYRYLAEVATGDDKKRIIDSARSAYQEAMDISKKEMPPTNPIRLGLALNFSVFHYEIANSPEEAISLAKTTFDEAMADLHTLSEDSYKDSTLIMQLLRDNLTLWTADNAGEEGGEAPQEPQS
notes: 14-3-3σ / stratifin, endogenous in HeLa cells; also called stratifin/14-3-3σ; endogenous 14-3-3σ; source: endogenous, HeLa lysate; endogenous, fixed HeLa cells
